Laboratory results: article PMC2824034, “The indispensable N-terminal half of eIF3j/HCR1 co-operates with its structurally conserved binding partner eIF3b/PRT1-RRM and eIF1A in stringent AUG selection” (Journal of molecular biology, 2010)
Values belong to the binder of their own block, whether it stands above or below them.

B1: heIF3b-RRM_(170-274) (domain or fragment, human, UniProt P55884 170-274, looked up)
chain: GDVLKDRPQEADGIDSVIVVDNVPQVGPDRLEKLKNVIHKIFSKFGKITNDFYPEEDGKTKGYIFLEYASPAHAVDAVKNADGYKLDKQHTFRVNLFTDFDKYMT
notes: 13C/15N-labeled in some NMR samples; The limits are printed for the NMR complex; the ITC names only heIF3b-RRM; also called human eIF3b-RRM; heIF3b-RRM domain; source: E. coli BL21(DE3), purified (nickel-chelating column, TEV cleavage, second nickel column)

Legend:
Details in all cases: both partners purified
heIF3j-W52A = target: T1, heIF3j-W52A (human, UniProt O75822 1-258, W52A); assay: ITC; VP-ITC; cell: 50 μM full-length heIF3j wt or mutant; syringe: 1 mM heIF3b-RRM; 20 mM Hepes pH 7.5, 200 mM NaCl, 25°C
T1 construct: human eIF3j, full length, W52A; source: E. coli BL21(DE3), purified (nickel-chelating column, TEV cleavage, second nickel column)
T1 sequence (O75822 whole entry W52A): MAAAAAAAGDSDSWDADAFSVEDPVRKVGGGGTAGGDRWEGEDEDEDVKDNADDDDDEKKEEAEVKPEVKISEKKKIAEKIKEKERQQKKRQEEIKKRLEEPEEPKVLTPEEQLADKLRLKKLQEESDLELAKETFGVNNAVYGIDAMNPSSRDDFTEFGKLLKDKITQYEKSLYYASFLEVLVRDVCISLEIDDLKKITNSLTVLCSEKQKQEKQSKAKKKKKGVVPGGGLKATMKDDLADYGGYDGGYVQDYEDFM

heIF3j-N51A = target: T2, heIF3j-N51A (human, UniProt O75822 1-258, N51A); assay: as above
T2 construct: human eIF3j, full length, N51A; source: E. coli BL21(DE3), purified (nickel-chelating column, TEV cleavage, second nickel column)
T2 sequence (O75822 whole entry N51A): as the sequence (O75822 whole entry W52A) above, with N51A, A52W counted along it

heIF3j-N51A-W52A = target: T3, heIF3j-N51A-W52A (human, UniProt O75822 1-258, N51A | W52A); assay: as above
T3 construct: human eIF3j, full length, N51A and W52A; source: E. coli BL21(DE3), purified (nickel-chelating column, TEV cleavage, second nickel column)
T3 sequence (O75822 whole entry N51A/W52A): as the sequence (O75822 whole entry W52A) above, with N51A counted along it

heIF3j-D50K-D53K-D57K = target: T4, heIF3j-D50K-D53K-D57K (human, UniProt O75822 1-258, D50K | D53K | D57K); assay: as above
T4 construct: human eIF3j, full length, D50K, D53K and D57K; source: E. coli BL21(DE3), purified (nickel-chelating column, TEV cleavage, second nickel column)
T4 sequence (O75822 whole entry D50K/D53K/D57K): as the sequence (O75822 whole entry W52A) above, with D50K, A52W, D53K, D57K counted along it

[1] = target: T5, heIF3j (full-length, untagged, wt) (human, UniProt O75822 1-258); assay: as above
T5 construct: human eIF3j, full length; also called human eIF3j; wt heIF3j; source: E. coli BL21(DE3), purified (nickel-chelating column, TEV cleavage, second nickel column)
T5 sequence (O75822 whole entry): as the sequence (O75822 whole entry W52A) above, with A52W counted along it

[2] = target: T5, heIF3j (full-length, untagged, wt); assay: pull-down; His6-heIF3b-RRM (wt or mutant) incubated with untagged full-length heIF3j (30 μM each) 15 min at room temperature, His-select spin columns; 50 mM sodium phosphate pH 8, 100 mM NaCl; washes with 5 mM imidazole, elution with 250 mM imidazole; SDS-PAGE, InstantBlue
heIF3b-RRM_(170-274) = target: B1; assay: NMR solution structure; 13C/15N-labeled heIF3b-RRM with heIF3j peptide or labeled peptide with heIF3b-RRM; 20 mM deuterated TRIS pH 7.5, 100 mM NaCl, 25°C; 0.7 mM RRM, 0.7-1.0 mM peptide; 32 intermolecular NOEs

Binder: B1
Kd (heIF3j-W52A): > 10000 µM
Kd (heIF3j-N51A): 55 ± 0.3 µM
Kd (heIF3j-N51A-W52A): > 10000 µM
Kd (heIF3j-D50K-D53K-D57K): > 10000 µM
Kd [1]: 20.3 µM

binding result [2]: binds
B2: His6-heIF3b-RRM-I210A (domain or fragment, human, UniProt P55884 170-274, looked up)
chain: GDVLKDRPQEADGIDSVIVVDNVPQVGPDRLEKLKNVIHKAFSKFGKITNDFYPEEDGKTKGYIFLEYASPAHAVDAVKNADGYKLDKQHTFRVNLFTDFDKYMT
notes: human eIF3b, RNA recognition motif domain, I210A; source: E. coli BL21(DE3), purified (nickel-chelating column)

binding result [2]: binds
B3: His6-heIF3b-RRM-F261A (domain or fragment, human, UniProt P55884 170-274, looked up)
chain: GDVLKDRPQEADGIDSVIVVDNVPQVGPDRLEKLKNVIHKIFSKFGKITNDFYPEEDGKTKGYIFLEYASPAHAVDAVKNADGYKLDKQHTARVNLFTDFDKYMT
notes: human eIF3b, RNA recognition motif domain, F261A; source: E. coli BL21(DE3), purified (nickel-chelating column)

binding result [2]: binds
B4: His6-heIF3b-RRM-Y253A (domain or fragment, human, UniProt P55884 170-274, looked up)
chain: GDVLKDRPQEADGIDSVIVVDNVPQVGPDRLEKLKNVIHKIFSKFGKITNDFYPEEDGKTKGYIFLEYASPAHAVDAVKNADGAKLDKQHTFRVNLFTDFDKYMT
notes: human eIF3b, RNA recognition motif domain, Y253A; source: E. coli BL21(DE3), purified (nickel-chelating column)

B5: heIF3j_(35-69) peptide (peptide, UniProt O75822 35-69, looked up)
peptide: GGDRWEGEDEDEDVKDNWDDDDDEKKEEAEVKPEV
notes: human eIF3j, residues 35-69, with the N-terminal acidic motif (NTA) around Trp52; 13C/15N-labeled in some NMR samples; also called heIF3j peptide; short heIF3j peptide; source: E. coli BL21(DE3), purified (nickel-chelating column, TEV cleavage, nickel column, HiTrap DEAE); not shown: His6, N-terminal, cleaved; lipoyl domain, N-terminal, cleaved
binding result (heIF3b-RRM_(170-274)): binds
